Experimental data from patent US20060067886A1, “Gastrin receptor-avid peptide conjugates” (priority 1997, published 2006).

Experiment: Biodistribution of radiometal-DOTA-BBN conjugates in CF1 normal mice
Conditions: 1 hour post-injection; for tissue uptake at 1 h / tissue uptake dose at 1 h / dose excreted at 1 h: CF-1, mouse, in vivo, iv, total radioactivity; for tissue uptake at 1 h: Avg % ID/gm; for tissue uptake dose at 1 h / dose excreted at 1 h: Avg % ID; for dose excreted at 1 h: Urine

| SMILES | Avg % ID, Blood [% ID] | Avg % ID, Carcass [% ID] | Avg % ID, Heart [% ID] | Avg % ID, Kidney [% ID] | Avg % ID, L. Intestine [% ID] | Avg % ID, Liver [% ID] | Avg % ID, Lung [% ID] | Avg % ID, Muscle [% ID] | Avg % ID, Pancreas [% ID] | Avg % ID, S. Intestine [% ID] | Avg % ID, Spleen [% ID] | Avg % ID, Stomach [% ID] | Avg % ID/gm, Blood [% ID/gm] | Avg % ID/gm, Heart [% ID/gm] | Avg % ID/gm, Kidney [% ID/gm] | Avg % ID/gm, L. Intestine [% ID/gm] | Avg % ID/gm, Liver [% ID/gm] | Avg % ID/gm, Lung [% ID/gm] | Avg % ID/gm, Muscle [% ID/gm] | Avg % ID/gm, Pancreas [% ID/gm] | other results |
| --- | --- | --- | --- | --- | --- | --- | --- | --- | --- | --- | --- | --- | --- | --- | --- | --- | --- | --- | --- | --- | --- |
| CSCC[C@H](NC(=O)[C@H](CC(C)C)NC(=O)[C@H](Cc1cnc[nH]1)NC(=O)CNC(=O)[C@@H](NC(=O)[C@H](C)NC(=O)[C@H](Cc1c[nH]c2ccccc12)NC(=O)[C@H](CCC(N)=O)NC(=O)CCNC(=O)CN1CCN(CC(=O)O)CCN(CC(=O)O)CCN(CC(=O)O)CC1)C(C)C)C(N)=O [149Pm-DOTA-β-Ala-BBN[7-14]NH2] | 0.30 ± 0.32 | 1.64 ± 0.38 | 0.02 ± 0.02 | 0.61 ± 0.41 | 0.31 ± 0.06 | 0.23 ± 0.07 | 0.06 ± 0.04 | 0.00 ± 0.01 | 0.46 ± 0.23 | 0.95 ± 0.19 | 0.02 ± 0.04 | 0.10 ± 0.03 | 0.21 ± 0.22 | 0.17 ± 0.24 | 2.05 ± 1.63 | 0.42 ± 0.08 | 0.15 ± 0.05 | 0.34 ± 0.30 | 0.04 ± 0.10 | 2.40 ± 1.33 | Avg % ID/gm, S. Intestine: 0.63 ± 0.20 % ID/gm; Avg % ID/gm, Spleen: 0.16 ± 0.31 % ID/gm; Avg % ID/gm, Stomach: 0.19 ± 0.11 % ID/gm |
| CSCC[C@H](NC(=O)[C@H](CC(C)C)NC(=O)[C@H](Cc1cnc[nH]1)NC(=O)CNC(=O)[C@@H](NC(=O)[C@H](C)NC(=O)[C@H](Cc1c[nH]c2ccccc12)NC(=O)[C@H](CCC(N)=O)NC(=O)CCNC(=O)CN1CCN(CC(=O)O)CCN(CC(=O)O)CCN(CC(=O)O)CC1)C(C)C)C(N)=O [177Lu-DOTA-β-Ala-BBN[7-14]NH2] [metal not drawn] | 0.24 ± 0.25 | 2.73 ± 1.08 | 0.05 ± 0.08 | 0.63 ± 0.14 | 0.36 ± 0.17 | 0.21 ± 0.09 | 0.04 ± 0.06 | 0.11 ± 0.18 | 0.32 ± 0.07 | 0.64 ± 0.20 | 0.05 ± 0.04 | 0.13 ± 0.09 | 0.16 ± 0.17 | 0.43 ± 0.70 | 1.88 ± 0.37 | 0.45 ± 0.19 | 0.15 ± 0.06 | 0.23 ± 0.33 | 0.94 ± 1.54 | 1.44 ± 0.26 | Avg % ID/gm, S. Intestine: 0.49 ± 0.10 % ID/gm; Avg % ID/gm, Spleen: 0.31 ± 0.31 % ID/gm; Avg % ID/gm, Stomach: 0.34 ± 0.18 % ID/gm |
| CSCC[C@H](NC(=O)[C@H](CC(C)C)NC(=O)[C@H](Cc1cnc[nH]1)NC(=O)CNC(=O)[C@@H](NC(=O)[C@H](C)NC(=O)[C@H](Cc1c[nH]c2ccccc12)NC(=O)[C@H](CCC(N)=O)NC(=O)CN1CCN(CC(=O)O)CCN(CC(=O)O)CCN(CC(=O)O)CC1)C(C)C)C(N)=O [177Lu-DOTA-0-BBN[7-14]NH2] [metal not drawn] | 0.39 ± 0.34 | 4.34 ± 2.64 | 0.01 ± 0.02 | 0.58 ± 0.10 | 0.09 ± 0.12 | 0.19 ± 0.10 | 0.04 ± 0.06 | 0.02 ± 0.03 | 0.06 ± 0.10 | 1.27 ± 1.03 | 0.01 ± 0.01 | 0.05 ± 0.11 | 0.58 ± 0.96 | 0.04 ± 0.09 | 1.21 ± 0.31 | 0.07 ± 0.09 | 0.09 ± 0.06 | 0.19 ± 0.26 | 0.09 ± 0.15 | 0.18 ± 0.28 | Avg % ID/gm, S. Intestine: 0.75 ± 0.60 % ID/gm; Avg % ID/gm, Spleen: 0.04 ± 0.09 % ID/gm; Avg % ID/gm, Stomach: 0.10 ± 0.21 % ID/gm |
| CSCC[C@H](NC(=O)[C@H](CC(C)C)NC(=O)[C@H](Cc1cnc[nH]1)NC(=O)CNC(=O)[C@@H](NC(=O)[C@H](C)NC(=O)[C@H](Cc1c[nH]c2ccccc12)NC(=O)[C@H](CCC(N)=O)NC(=O)CCCCCCCNC(=O)CN1CCN(CC(=O)O)CCN(CC(=O)O)CCN(CC(=O)O)CC1)C(C)C)C(N)=O [149Pm-DOTA-8-Aoc-BBN[7-14]NH2] | – | – | – | – | – | – | – | – | – | – | – | – | – | – | – | – | – | – | – | – | tissue uptake at 1 h (Stomach): 1.16 ± 0.59 %ID/g |
| CSCC[C@H](NC(=O)[C@H](CC(C)C)NC(=O)[C@H](Cc1cnc[nH]1)NC(=O)CNC(=O)[C@@H](NC(=O)[C@H](C)NC(=O)[C@H](Cc1c[nH]c2ccccc12)NC(=O)[C@H](CCC(N)=O)NC(=O)CN1CCN(CC(=O)O)CCN(CC(=O)O)CCN(CC(=O)O)CC1)C(C)C)C(N)=O [149Pm-DOTA-0-BBN[7-14]NH2] | 0.00 ± 0.00 | 1.98 ± 2.27 | 0.00 ± 0.00 | 0.34 ± 0.28 | 0.01 ± 0.02 | 0.16 ± 0.15 | 0.00 ± 0.00 | 0.00 ± 0.00 | 0.07 ± 0.01 | 0.38 ± 0.25 | 0.00 ± 0.00 | 0.02 ± 0.05 | 0.00 ± 0.00 | 0.00 ± 0.00 | 1.04 ± 0.90 | 0.01 ± 0.03 | 0.12 ± 0.10 | 0.00 ± 0.00 | 0.00 ± 0.00 | 0.00 ± 0.00 | Avg % ID/gm, S. Intestine: 0.27 ± 0.17 % ID/gm; Avg % ID/gm, Spleen: 0.00 ± 0.00 % ID/gm; Avg % ID/gm, Stomach: 0.04 ± 0.08 % ID/gm |
| CSCC[C@H](NC(=O)[C@H](CC(C)C)NC(=O)[C@H](Cc1cnc[nH]1)NC(=O)CNC(=O)[C@@H](NC(=O)[C@H](C)NC(=O)[C@H](Cc1c[nH]c2ccccc12)NC(=O)[C@H](CCC(N)=O)NC(=O)CCNC(=O)CN1CCN(CC(=O)O)CCN(CC(=O)O)CCN(CC(=O)O)CC1)C(C)C)C(N)=O [111In-DOTA-β-Ala-BBN[7-14]NH2, metal not drawn] | – | – | – | – | – | – | – | – | – | – | – | – | – | – | – | – | – | – | – | – | tissue uptake dose at 1 h (Blood): 0.23 ± 0.1 %ID; tissue uptake dose at 1 h (Carcass): 2.23 ± 0.36 %ID; tissue uptake dose at 1 h (Kidney): 0.62 ± 0.1 %ID; tissue uptake dose at 1 h (Liver): 0.17 ± 0.03 %ID; tissue uptake dose at 1 h (Lung): 0.03 ± 0.02 %ID; tissue uptake dose at 1 h (Stomach): 0.13 ± 0.02 %ID; dose excreted at 1 h: 92.41 ± 0.9%; tissue uptake at 1 h (Blood): 0.11 ± 0.06 %ID/g; tissue uptake at 1 h (Kidney): 1.4 ± 0.27 %ID/g; tissue uptake at 1 h (Liver): 0.11 ± 0.02 %ID/g; tissue uptake at 1 h (Stomach): 0.3 ± 0.07 %ID/g |
| CSCC[C@H](NC(=O)[C@H](CC(C)C)NC(=O)[C@H](Cc1c[nH]cn1)NC(=O)CNC(=O)[C@@H](NC(=O)[C@H](C)NC(=O)[C@H](Cc1c[nH]c2ccccc12)NC(=O)[C@H](CCC(N)=O)NC(=O)CCCCNC(=O)CN1CCN(CC(=O)O)CCN(CC(=O)O)CCN(CC(=O)O)CC1)C(C)C)C(N)=O [111In-DOTA-5-Ava-BBN[7-14]NH2, metal not drawn] | – | – | – | – | – | – | – | – | – | – | – | – | – | – | – | – | – | – | – | – | tissue uptake dose at 1 h (Blood): 0.45 ± 0.14 %ID; tissue uptake dose at 1 h (Kidney): 0.75 ± 0.14 %ID; tissue uptake dose at 1 h (L. Intestine): 2.74 ± 0.8 %ID; tissue uptake dose at 1 h (Pancreas): 5.57 ± 0.99 %ID; dose excreted at 1 h: 81.3 ± 1.32%; tissue uptake at 1 h (Blood): 0.2 ± 0.07 %ID/g; tissue uptake at 1 h (Kidney): 1.84 ± 0.44 %ID/g; tissue uptake at 1 h (L. Intestine): 3.07 ± 0.86 %ID/g; tissue uptake at 1 h (Pancreas): 15.8 ± 2.54 %ID/g |
| CSCC[C@H](NC(=O)[C@H](CC(C)C)NC(=O)[C@H](Cc1cnc[nH]1)NC(=O)CNC(=O)[C@@H](NC(=O)[C@H](C)NC(=O)[C@H](Cc1c[nH]c2ccccc12)NC(=O)[C@H](CCC(N)=O)NC(=O)CN1CCN(CC(=O)O)CCN(CC(=O)O)CCN(CC(=O)O)CC1)C(C)C)C(N)=O [111In-DOTA-0-BBN[7-14]NH2, metal not drawn] | – | – | – | – | – | – | – | – | – | – | – | – | – | – | – | – | – | – | – | – | tissue uptake dose at 1 h (Blood): 0.22 ± 0.07 %ID; tissue uptake dose at 1 h (Heart): 0.01 %ID; tissue uptake dose at 1 h (Kidney): 0.57 ± 0.02 %ID; tissue uptake dose at 1 h (Liver): 0.17 ± 0.02 %ID; tissue uptake dose at 1 h (Lung): 0.03 %ID; tissue uptake dose at 1 h (Muscle): 0.01 %ID; tissue uptake dose at 1 h (Pancreas): 0.07 ± 0.01 %ID; tissue uptake dose at 1 h (Spleen): 0.01 %ID; dose excreted at 1 h: 96.95 ± 0.37%; tissue uptake at 1 h (Heart): 0.05 ± 0.02 %ID/g; tissue uptake at 1 h (Kidney): 1.24 ± 0.14 %ID/g; tissue uptake at 1 h (Liver): 0.09 ± 0.01 %ID/g; tissue uptake at 1 h (Lung): 0.13 ± 0.03 %ID/g; tissue uptake at 1 h (Pancreas): 0.2 ± 0.04 %ID/g; tissue uptake at 1 h (Spleen): 0.08 ± 0.02 %ID/g |
